Data published in patent US8853359B2, “Endokinin C/D-derived peptides” (University of Miyazaki, priority 2009, dated 2014).

Experiments:
[1] = paw size after subcutaneous administration of peptide alone to plantar; format: in vivo, rat; settings: 10^-3M D-EKC/D (3) subcutaneous to plantar; for paw plantar size after administration of peptide alone: FIG. 10A
Procedure: 100 μlof saline or 10^−3M (100 nmol/100 D-EKC/D (3) was subcutaneously administered to rat plantar. Paw size was measured with time for 60 minutes after administration. Paw size (control) before administration was designated as the basal level, and increases in paw size were then calculated.

[2] = test system: carrageenan-induced inflammation; test: carrageenan-induced increase in paw size after subcutaneous pre-administration of peptide to plantar; format: in vivo, rat; settings: 10^-3M (100 nmol/100 μl) subcutaneous to plantar
Procedure: 100 μl of saline, 10^−3M (100 nmol/100 μl) D-EKC/D (3), or 10^−3M (100 nmol/100 μl) Spantide II (N^6-[(3-pyridinyl)carbonyl]-D-Lys-L-Pro-3-(3-pyridinyl)-L-Ala-L-Pro-3,4-dichloro-D-Phe-L-Asn-D-Trp-L-Phe-D-Trp-L-Leu-L-Nle-NH2) (SEQ ID NO: 21) was subcutaneously administered to rat plantar. Four (4) hours later, 100 μl (2 mg/100 μl) of 2% carrageenan was subcutaneously administered to rat plantar. Paw size was measured every 10 minutes for 60 minutes after carrageenan administration. The paw size (control) before carrageenan administration was designated as the basal level and increases in paw size were then calculated.
Procedures similar to those in Experiment B were performed, except for administration of carrageenan at 8 hours after administration of saline, D-EKC/D (3), or Spantide II.
Procedures similar to those in Experiment B were performed except that the test with Spantide II was not conducted and carrageenan was administered at 14 hours after administration of saline or D-EKC/D (3).

Substance: Ala-Tyr-Gln-Leu-Glu-His-Thr-Phe-Gln-DTrp-Leu-Leu-NH2 (AYQLEHTFQXLL; HELM PEPTIDE1{A.Y.Q.L.E.H.T.F.Q.[dW].L.L.[am]}$$$$V2.0; N-terminus assumed; SMILES CC(C)C[C@H](NC(=O)[C@H](CC(C)C)NC(=O)[C@@H](Cc1c[nH]c2ccccc12)NC(=O)[C@H](CCC(N)=O)NC(=O)[C@H](Cc1ccccc1)NC(=O)[C@@H](NC(=O)[C@H](Cc1c[nH]cn1)NC(=O)[C@H](CCC(=O)O)NC(=O)[C@H](CC(C)C)NC(=O)[C@H](CCC(N)=O)NC(=O)[C@H](Cc1ccc(O)cc1)NC(=O)[C@H](C)N)[C@@H](C)O)C(N)=O) [D-EKC/D (3)]
- inflammation reaction caused by the peptide [1]: no inflammation reaction took place
- paw plantar size after administration of peptide alone ([1]; 60 minutes after administration): restored to near the basal (control) level
- paw plantar size after administration of peptide alone ([1]; early after administration): tentatively increased
- increases in paw size accompanying carrageenan-induced inflammation ([2]; carrageenan 4 hours later, FIG. 10B): suppressed increases in paw size accompanying carrageenan-induced inflammation more significantly than administration of Spantide II
- increases in paw size accompanying carrageenan-induced inflammation ([2]; carrageenan 8 hours later, FIG. 10C): suppressed increases in paw size
- increases in paw size accompanying carrageenan-induced inflammation ([2]; carrageenan 14 hours later, FIG. 10D): suppressed increases in paw size
